Numbered stars: 1 amine (or outer) side, 2 acyl side, 3 side chain; on linkers, the order of the positions; unused ones are H or OH. Bridge positions count the residues as written; N and C are the ends. Square brackets hold non-standard residues; d marks the D form. Primed or numbered codes have the meaning given here. NEtCNG = 2-(2-Cyanoethylamino)acetic acid ((2-cyanoethyl)glycine), N#CCCN(CC(=O)[*:2])[*:1]; bhcLeu = (1R,3S)-3-aminocyclopentane-1-carboxylic acid, O=C([C@@H]1CC[C@H](N[*:1])C1)[*:2]; Trp(βS-Me,7-OMe) = COc1cccc2c([C@H](C)[C@H](N)C(=O)O)c[nH]c12; Trp(βS-Me) = C[C@@H](c1c[nH]c2ccccc12)[C@H](N)C(=O)O; Trp(7-Cl) = N[C@@H](Cc1c[nH]c2c(Cl)cccc12)C(=O)O; Phe(3-COOH) = N[C@@H](Cc1cccc(C(=O)O)c1)C(=O)O; Phe(4-CONH2) = NC(=O)c1ccc(C[C@H](N)C(=O)O)cc1; Phe(4-COOH) = N[C@@H](Cc1ccc(C(=O)O)cc1)C(=O)O; Trp(7-aza) = N[C@@H](Cc1c[nH]c2ncccc12)C(=O)O; Phe(4-CH2NH2) = NCc1ccc(C[C@H](N)C(=O)O)cc1; 3Pal(6-OMe) = COc1ccc(C[C@H](N)C(=O)O)cn1; Pip(5R-OH) = O=C(O)[C@@H]1CC[C@@H](O)CN1; αMeW = C[C@](N)(Cc1c[nH]c2ccccc12)C(=O)O; Ala(2-furyl) = N[C@@H](Cc1ccco1)C(=O)O; 2Nal = N[C@@H](Cc1ccc2ccccc2c1)C(=O)O; Dap(CONH2) = NC(=O)NC[C@H](N)C(=O)O; Pip(4-aza) = O=C(O)[C@@H]1CNCCN1; 3Pal = N[C@@H](Cc1cccnc1)C(=O)O; 4Pal = N[C@@H](Cc1ccncc1)C(=O)O; NMeE = CN[C@@H](CCC(=O)O)C(=O)O; 2SBrBu = not defined here; 2SBrPr = not defined here; NMeS = CN[C@@H](CO)C(=O)O; Pip = O=C(O)[C@@H]1CCCCN1; αMeS = C[C@](N)(CO)C(=O)O; Nle = CCCC[C@H](N)C(=O)O; Pip2c = not defined here; SBrPh = not defined here; Ahp′ = not defined here; Dab = NCC[C@H](N)C(=O)O; Spip = not defined here; Dap = NC[C@H](N)C(=O)O; Sar = CNCC(=O)O
T1: TNFR1 on THP-1 Lucia NF-κB cells (UniProt P19438 30-455, limits assumed)
T1 sequence (looked up): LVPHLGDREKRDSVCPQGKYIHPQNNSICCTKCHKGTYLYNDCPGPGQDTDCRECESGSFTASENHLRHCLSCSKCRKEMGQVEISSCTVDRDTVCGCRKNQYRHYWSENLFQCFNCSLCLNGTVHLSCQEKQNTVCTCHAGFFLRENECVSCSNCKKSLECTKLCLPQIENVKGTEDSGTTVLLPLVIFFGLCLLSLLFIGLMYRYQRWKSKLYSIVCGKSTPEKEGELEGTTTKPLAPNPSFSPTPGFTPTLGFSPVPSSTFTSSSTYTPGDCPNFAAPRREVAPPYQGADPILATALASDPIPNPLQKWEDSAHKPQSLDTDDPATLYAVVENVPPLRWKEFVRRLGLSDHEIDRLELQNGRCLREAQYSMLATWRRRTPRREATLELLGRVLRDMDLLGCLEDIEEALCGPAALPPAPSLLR

B1: SEQ ID NO. 249 (peptide)
peptide: {CH2CO}-[Nle][4Pal][Pip(4-aza)]W[NMeE]N[4Pal][Trp(7-Cl)][αMeS][Phe(3-COOH)]Y[Sar][Trp(βS-Me,7-OMe)]C-NH2
modifications: thioether N-14
SMILES: CCCC[C@@H]1NC(=O)CSC[C@@H](C(N)=O)NC(=O)[C@H]([C@@H](C)c2c[nH]c3c(OC)cccc23)NC(=O)CN(C)C(=O)[C@H](Cc2ccc(O)cc2)NC(=O)[C@H](Cc2cccc(C(=O)O)c2)NC(=O)[C@](C)(CO)NC(=O)[C@H](Cc2c[nH]c3c(Cl)cccc23)NC(=O)[C@H](Cc2ccncc2)NC(=O)[C@H](CC(N)=O)NC(=O)[C@H](CCC(=O)O)N(C)C(=O)[C@H](Cc2c[nH]c3ccccc23)NC(=O)[C@@H]2CNCCN2C(=O)[C@H](Cc2ccncc2)NC1=O
B2: SEQ ID NO. 246 (peptide)
peptide: 2SBrBu-[Nle][4Pal][Spip]W[NMeE]N[4Pal][Trp(7-Cl)][αMeS][Phe(4-CONH2)]Y[Sar][Trp(βS-Me,7-OMe)]C-NH2
modifications: thioether N-14; reading uncertain; also: printed as cyclo(2SBrBu-Nle-4Pal-Spip-W-NMeE-N-4Pal-Trp7Cl-aMeS-Phe4CONH2-Y-Sar-SbMeW7OMe-C)-NH2
B3: SEQ ID NO. 250 (peptide)
peptide: 2SBrPr-[Nle][Phe(4-CH2NH2)]S[Trp(7-aza)][NMeE]N[4Pal][Trp(7-Cl)][αMeS][Phe(4-CONH2)]Y[Sar][Trp(βS-Me,7-OMe)]C-NH2
modifications: thioether N-14; reading uncertain; also: printed as cyclo(2SBrPr-Nle-Phe4CH2NH2-S-Trp7az-NMeE-N-4Pal-Trp7Cl-aMeS-Phe4CONH2-Y-Sar-SbMeW7OMe-C)-NH2
B4: SEQ ID NO. 241 (peptide)
peptide: cyclo([bhcLeu][Nle][3Pal(6-OMe)][Pip(4-aza)]W[NMeE]N[4Pal][Trp(7-Cl)][αMeS][Phe(4-COOH)]Y[Sar][Trp(βS-Me,7-OMe)])
SMILES: CCCC[C@@H]1NC(=O)[C@@H]2CC[C@@H](C2)NC(=O)[C@H]([C@@H](C)c2c[nH]c3c(OC)cccc23)NC(=O)CN(C)C(=O)[C@H](Cc2ccc(O)cc2)NC(=O)[C@H](Cc2ccc(C(=O)O)cc2)NC(=O)[C@](C)(CO)NC(=O)[C@H](Cc2c[nH]c3c(Cl)cccc23)NC(=O)[C@H](Cc2ccncc2)NC(=O)[C@H](CC(N)=O)NC(=O)[C@H](CCC(=O)O)N(C)C(=O)[C@H](Cc2c[nH]c3ccccc23)NC(=O)[C@@H]2CNCCN2C(=O)[C@H](Cc2ccc(OC)nc2)NC1=O
B5: SEQ ID NO. 255 (peptide)
peptide: {CH2CO}-[Nle][4Pal][Pip(4-aza)][Trp(7-aza)][NMeE]N[4Pal][Trp(7-Cl)][αMeS][Phe(4-COOH)]Y[Sar][Trp(βS-Me,7-OMe)]CGEE-NH2
modifications: thioether N-14
SMILES: CCCC[C@@H]1NC(=O)CSC[C@@H](C(=O)NCC(=O)N[C@@H](CCC(=O)O)C(=O)N[C@@H](CCC(=O)O)C(N)=O)NC(=O)[C@H]([C@@H](C)c2c[nH]c3c(OC)cccc23)NC(=O)CN(C)C(=O)[C@H](Cc2ccc(O)cc2)NC(=O)[C@H](Cc2ccc(C(=O)O)cc2)NC(=O)[C@](C)(CO)NC(=O)[C@H](Cc2c[nH]c3c(Cl)cccc23)NC(=O)[C@H](Cc2ccncc2)NC(=O)[C@H](CC(N)=O)NC(=O)[C@H](CCC(=O)O)N(C)C(=O)[C@H](Cc2c[nH]c3ncccc23)NC(=O)[C@@H]2CNCCN2C(=O)[C@H](Cc2ccncc2)NC1=O
B6: SEQ ID NO. 226 (peptide)
peptide: {CH2CO}-[Ahp′]Y[AlaPiperaz][Trp(βS-Me)][dP]N[4Pal][Trp(7-Cl)][αMeS][Phe(4-COOH)][3Pal][Sar][αMeW]C-NH2
modifications: thioether N-14; reading uncertain; also: printed as cyclo(ClAc-Ahp-Y-AlaPiperaz-SbMeW-dP-N-4Pal-Trp7Cl-aMeS-Phe4COOH-3Pal-Sar-aMeW-C)-NH2
B7: SEQ ID NO. 237 (peptide)
peptide: {CH2CO}-[Ahp′][4Pal]S[Trp(βS-Me)][dP]N[Phe(4-COOH)][2Nal][αMeS][Phe(4-COOH)]H[Sar][αMeW]C-NH2
modifications: thioether N-14; reading uncertain; also: printed as cyclo(ClAc-Ahp-4Pal-S-SbMeW-dP-N-Phe4COOH-2Nal-aMeS-Phe4COOH-H-Sar-aMeW-C)-NH2
B8: SEQ ID NO. 273 (peptide)
peptide: XXXXENXXXXYGXC
modifications: not fully specified; cyclo(2SBrPr-Nle-4Pal-Bav-Trp7az-NMeE-N-4Pal-Trp7Cl-aMeS-Phe4CONH2-Y-Sar-SbMeW7OMe-C)-NH2
B9: SEQ ID NO. 228 (peptide)
peptide: {CH2CO}-[Nle][4Pal][Pip][Trp(7-aza)][NEtCNG]N[4Pal][Trp(7-Cl)][αMeS][Phe(4-COOH)]Y[Sar][Trp(βS-Me,7-OMe)]C-NH2
modifications: thioether N-14
SMILES: CCCC[C@@H]1NC(=O)CSC[C@@H](C(N)=O)NC(=O)[C@H]([C@@H](C)c2c[nH]c3c(OC)cccc23)NC(=O)CN(C)C(=O)[C@H](Cc2ccc(O)cc2)NC(=O)[C@H](Cc2ccc(C(=O)O)cc2)NC(=O)[C@](C)(CO)NC(=O)[C@H](Cc2c[nH]c3c(Cl)cccc23)NC(=O)[C@H](Cc2ccncc2)NC(=O)[C@H](CC(N)=O)NC(=O)CN(CCC#N)C(=O)[C@H](Cc2c[nH]c3ncccc23)NC(=O)[C@@H]2CCCCN2C(=O)[C@H](Cc2ccncc2)NC1=O
B10: SEQ ID NO. 264 (peptide)
peptide: {CH2CO}-[Nle]H[Pip2c][Trp(7-aza)][NMeE]N[4Pal][Trp(7-Cl)][αMeS][Phe(4-COOH)]Y[Sar][Trp(βS-Me,7-OMe)]C-NH2
modifications: thioether N-14; reading uncertain; also: printed as cyclo(ClAc-Nle-H-Pip2c-Trp7az-NMeE-N-4Pal-Trp7Cl-aMeS-Phe4COOH-Y-Sar-SbMeW7OMe-C)-NH2
B11: SEQ ID NO. 225 (peptide)
peptide: cyclo([bhcLeu][Nle][4Pal][Pip(4-aza)]W[NMeE][Dap(CONH2)][4Pal][Trp(7-Cl)][αMeS][Phe(4-COOH)]Y[Sar][Trp(βS-Me,7-OMe)])
SMILES: CCCC[C@@H]1NC(=O)[C@@H]2CC[C@@H](C2)NC(=O)[C@H]([C@@H](C)c2c[nH]c3c(OC)cccc23)NC(=O)CN(C)C(=O)[C@H](Cc2ccc(O)cc2)NC(=O)[C@H](Cc2ccc(C(=O)O)cc2)NC(=O)[C@](C)(CO)NC(=O)[C@H](Cc2c[nH]c3c(Cl)cccc23)NC(=O)[C@H](Cc2ccncc2)NC(=O)[C@H](CNC(N)=O)NC(=O)[C@H](CCC(=O)O)N(C)C(=O)[C@H](Cc2c[nH]c3ccccc23)NC(=O)[C@@H]2CNCCN2C(=O)[C@H](Cc2ccncc2)NC1=O
B12: SEQ ID NO. 277 (peptide)
peptide: {CH2CO}-[Nle][4Pal][Dab][Trp(7-aza)][NMeE]N[4Pal][Trp(7-Cl)][αMeS][Phe(4-COOH)]Y[Sar][αMeW]C-NH2
modifications: thioether N-14
SMILES: CCCC[C@@H]1NC(=O)CSC[C@@H](C(N)=O)NC(=O)[C@](C)(Cc2c[nH]c3ccccc23)NC(=O)CN(C)C(=O)[C@H](Cc2ccc(O)cc2)NC(=O)[C@H](Cc2ccc(C(=O)O)cc2)NC(=O)[C@](C)(CO)NC(=O)[C@H](Cc2c[nH]c3c(Cl)cccc23)NC(=O)[C@H](Cc2ccncc2)NC(=O)[C@H](CC(N)=O)NC(=O)[C@H](CCC(=O)O)N(C)C(=O)[C@H](Cc2c[nH]c3ncccc23)NC(=O)[C@H](CCN)NC(=O)[C@H](Cc2ccncc2)NC1=O
B13: SEQ ID NO. 274 (peptide)
peptide: SBrPh-[Nle][4Pal]S[Trp(7-aza)][NMeE]N[4Pal][Trp(7-Cl)][αMeS][Phe(4-COOH)]Y[Sar][αMeW]C-NH2
modifications: thioether N-14; reading uncertain; also: printed as cyclo(SBrPh-Nle-4Pal-S-Trp7az-NMeE-N-4Pal-Trp7Cl-aMeS-Phe4COOH-Y-Sar-aMeW-C)-NH2
B14: SEQ ID NO. 236 (peptide)
peptide: {CH2CO}-[Nle][4Pal][Pip(4-aza)]W[dP]N[Ala(2-furyl)][Trp(7-Cl)][αMeS][Phe(4-COOH)]Y[Sar][Trp(βS-Me,7-OMe)]C-NH2
modifications: thioether N-14
SMILES: CCCC[C@@H]1NC(=O)CSC[C@@H](C(N)=O)NC(=O)[C@H]([C@@H](C)c2c[nH]c3c(OC)cccc23)NC(=O)CN(C)C(=O)[C@H](Cc2ccc(O)cc2)NC(=O)[C@H](Cc2ccc(C(=O)O)cc2)NC(=O)[C@](C)(CO)NC(=O)[C@H](Cc2c[nH]c3c(Cl)cccc23)NC(=O)[C@H](Cc2ccco2)NC(=O)[C@H](CC(N)=O)NC(=O)[C@H]2CCCN2C(=O)[C@H](Cc2c[nH]c3ccccc23)NC(=O)[C@@H]2CNCCN2C(=O)[C@H](Cc2ccncc2)NC1=O

Biological target: T1, TNFR1 on THP-1 Lucia NF-κB cells
Experiment: cell-based or functional assay

Row | THP-1 IC50 | Binder
1 | 4.4 nM | B1
2 | 0.7 nM | cyclo([bhcLeu][LysMe2][4Pal][Pip(5R-OH)]W[NMeE]N[4Pal][Trp(7-Cl)][αMeS][Phe(4-CONH2)]Y[Sar][Trp(βS-Me,7-OMe)]) [SEQ ID NO. 238]
3 | 4.3 nM | B2
4 | 2.4 nM | B3
5 | 1.4 nM | B4
6 | 6.5 nM | B5
7 | 9.4 nM | {CH2CO}-[LysN3][4Pal][Dap][Trp(βS-Me)][dP]N[4Pal][Trp(7-Cl)][αMeS][Phe(4-COOH)][Phe(4-CH2NH2)][Sar][αMeW]C-NH2 (thioether N-14) [SEQ ID NO. 245]
8 | 10 nM | B6
9 | 20.8 nM | B7
10 | 4.1 nM | B8
11 | 4 nM | B9
12 | 8.1 nM | B10
13 | 0.9 nM | B11
14 | 2.2 nM | {CH2CO}-[Nle][4Pal][NMeS]W[NMeE]N[4Pal][Trp(7-Cl)][αMeS][Phe(4-COOH)][Phe3CONH2][Sar][Trp(βS-Me,7-OMe)]C-NH2 (thioether N-14) [SEQ ID NO. 270]
15 | 3 nM | B12
16 | 3.2 nM | B13
17 | 4.2 nM | B14

Reference: patent US20240287138A1 (Merck Sharp & Dohme, published 2024)
